Measured values reported in patent US20200023071A1.

Legend:
[1] = target: recombinant human CD64 (human) (UniProt P12314); assay: SPR (Biacore T100), antibody immobilized on sensor chip, soluble CD64 as analyte, 1:1 kinetic binding model
human FcRn (human) = human FcRn (human) (UniProt P55899); assay: SPR (Biacore T100), antibody immobilized on sensor chip, soluble FcR as analyte, steady state affinity model
[2] = target: recombinant human CD16a(F) (human) (UniProt P08637); assay: as above
[3] = target: recombinant human CD16a(V) (human) (UniProt P08637); assay: as above
recombinant human CD16a(V) (human), sequence (P08637 17-208 F176V limits assumed): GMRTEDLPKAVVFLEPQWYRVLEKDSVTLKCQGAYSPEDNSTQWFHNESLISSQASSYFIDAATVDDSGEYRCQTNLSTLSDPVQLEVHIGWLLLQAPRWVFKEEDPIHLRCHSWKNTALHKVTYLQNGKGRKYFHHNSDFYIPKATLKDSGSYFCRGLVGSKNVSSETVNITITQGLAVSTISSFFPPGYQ

[4] = target: recombinant human CD16b (human) (UniProt O75015); assay: as above
recombinant human CD16b (human), sequence (O75015 17-200 limits assumed): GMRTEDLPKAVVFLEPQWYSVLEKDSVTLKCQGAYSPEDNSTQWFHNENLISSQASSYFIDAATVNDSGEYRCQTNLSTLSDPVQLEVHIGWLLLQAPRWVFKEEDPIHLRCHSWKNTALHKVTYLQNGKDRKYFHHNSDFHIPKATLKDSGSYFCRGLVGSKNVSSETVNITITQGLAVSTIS

[5] = target: recombinant human CD32a (human) (UniProt P12318); assay: as above
recombinant human CD32a (human), sequence (P12318 34-217): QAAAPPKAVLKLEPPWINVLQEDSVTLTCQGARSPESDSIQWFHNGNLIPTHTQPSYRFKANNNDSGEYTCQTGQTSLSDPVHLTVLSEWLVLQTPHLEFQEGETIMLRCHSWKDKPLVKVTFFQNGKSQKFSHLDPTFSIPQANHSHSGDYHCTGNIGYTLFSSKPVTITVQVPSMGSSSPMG

recombinant human CD64 (human), sequence (P12314 16-292 limits assumed): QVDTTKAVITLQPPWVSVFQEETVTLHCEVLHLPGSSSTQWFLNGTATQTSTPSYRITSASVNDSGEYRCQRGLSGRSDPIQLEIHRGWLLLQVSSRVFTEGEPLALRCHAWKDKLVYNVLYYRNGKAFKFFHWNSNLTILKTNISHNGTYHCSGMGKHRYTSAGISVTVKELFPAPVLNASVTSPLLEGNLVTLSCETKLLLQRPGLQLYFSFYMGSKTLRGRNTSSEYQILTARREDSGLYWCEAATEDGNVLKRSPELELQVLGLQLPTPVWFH
recombinant human CD16a(F) (human), sequence (P08637 17-208 limits assumed): as the sequence (P08637 17-208 F176V limits assumed) above, with V160F counted along it

Row | Kd [1] | Kd (human FcRn (human)) | Kd [2] | Kd [3] | Kd [4] | Kd [5] | Substance
1 | 278 nM | 712 nM | – | – | – | – | human IgG1 antibody having a N297S substitution (from UniProt P01857 1-330)
2 | – | – | 962 nM | 734 nM | 15000 nM | 2080 nM | antibody having wild type human IgG1 domain (from UniProt P01857 1-330)
